The target in the assay is T1, TwinStrep-BICD2 WT (mouse), Q921C5.
T1 chain: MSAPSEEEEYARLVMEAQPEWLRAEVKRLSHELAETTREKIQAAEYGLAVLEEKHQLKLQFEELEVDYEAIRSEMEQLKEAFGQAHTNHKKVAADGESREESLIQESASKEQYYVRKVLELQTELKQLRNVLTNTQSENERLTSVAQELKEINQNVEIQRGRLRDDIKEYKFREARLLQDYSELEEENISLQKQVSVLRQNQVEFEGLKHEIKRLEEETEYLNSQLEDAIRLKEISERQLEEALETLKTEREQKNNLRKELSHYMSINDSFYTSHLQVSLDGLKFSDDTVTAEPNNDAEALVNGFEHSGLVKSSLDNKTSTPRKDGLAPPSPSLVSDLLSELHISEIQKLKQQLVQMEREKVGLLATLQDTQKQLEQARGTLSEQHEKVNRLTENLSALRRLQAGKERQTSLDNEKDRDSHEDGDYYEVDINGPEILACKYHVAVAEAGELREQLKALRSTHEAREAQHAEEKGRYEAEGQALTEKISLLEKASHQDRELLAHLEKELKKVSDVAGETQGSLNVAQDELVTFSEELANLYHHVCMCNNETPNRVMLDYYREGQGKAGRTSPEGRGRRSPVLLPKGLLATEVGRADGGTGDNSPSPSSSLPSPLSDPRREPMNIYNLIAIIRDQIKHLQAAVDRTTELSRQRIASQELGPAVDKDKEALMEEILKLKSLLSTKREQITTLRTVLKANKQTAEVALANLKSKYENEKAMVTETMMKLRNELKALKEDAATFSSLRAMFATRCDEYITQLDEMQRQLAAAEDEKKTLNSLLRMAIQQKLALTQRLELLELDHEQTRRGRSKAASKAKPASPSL
The assay can be described thus: SEC-MALS; purified TwinStrep-BICD2 WT and S102D; predicted MW of ~190 kDa. The note with it: remark: other sources report otherwise.

B1: TwinStrep-BICD2 WT, Q921C5 1-820 (natural protein)
chain: MSAPSEEEEYARLVMEAQPEWLRAEVKRLSHELAETTREKIQAAEYGLAVLEEKHQLKLQFEELEVDYEAIRSEMEQLKEAFGQAHTNHKKVAADGESREESLIQESASKEQYYVRKVLELQTELKQLRNVLTNTQSENERLTSVAQELKEINQNVEIQRGRLRDDIKEYKFREARLLQDYSELEEENISLQKQVSVLRQNQVEFEGLKHEIKRLEEETEYLNSQLEDAIRLKEISERQLEEALETLKTEREQKNNLRKELSHYMSINDSFYTSHLQVSLDGLKFSDDTVTAEPNNDAEALVNGFEHSGLVKSSLDNKTSTPRKDGLAPPSPSLVSDLLSELHISEIQKLKQQLVQMEREKVGLLATLQDTQKQLEQARGTLSEQHEKVNRLTENLSALRRLQAGKERQTSLDNEKDRDSHEDGDYYEVDINGPEILACKYHVAVAEAGELREQLKALRSTHEAREAQHAEEKGRYEAEGQALTEKISLLEKASHQDRELLAHLEKELKKVSDVAGETQGSLNVAQDELVTFSEELANLYHHVCMCNNETPNRVMLDYYREGQGKAGRTSPEGRGRRSPVLLPKGLLATEVGRADGGTGDNSPSPSSSLPSPLSDPRREPMNIYNLIAIIRDQIKHLQAAVDRTTELSRQRIASQELGPAVDKDKEALMEEILKLKSLLSTKREQITTLRTVLKANKQTAEVALANLKSKYENEKAMVTETMMKLRNELKALKEDAATFSSLRAMFATRCDEYITQLDEMQRQLAAAEDEKKTLNSLLRMAIQQKLALTQRLELLELDHEQTRRGRSKAASKAKPASPSL
In the case of B1, the stoichiometry N (in general, the number of molecules, sites or subunits per partner or assembly) was 2.

The values are drawn from article PMC10140047.
